Experimental data reported in patent US20210221894A1 (DRAGONFLY THERAPEUTICS, published 2021).

Assays:
recombinant human DLL1 = target: T1, recombinant human DLL1 (human, UniProt O00548 18-540, limits assumed); test: ELISA, plate-bound recombinant human DLL1 (1 µg/mL), anti-mouse IgG-HRP/TMB, % of positive control max
T1 sequence (looked up): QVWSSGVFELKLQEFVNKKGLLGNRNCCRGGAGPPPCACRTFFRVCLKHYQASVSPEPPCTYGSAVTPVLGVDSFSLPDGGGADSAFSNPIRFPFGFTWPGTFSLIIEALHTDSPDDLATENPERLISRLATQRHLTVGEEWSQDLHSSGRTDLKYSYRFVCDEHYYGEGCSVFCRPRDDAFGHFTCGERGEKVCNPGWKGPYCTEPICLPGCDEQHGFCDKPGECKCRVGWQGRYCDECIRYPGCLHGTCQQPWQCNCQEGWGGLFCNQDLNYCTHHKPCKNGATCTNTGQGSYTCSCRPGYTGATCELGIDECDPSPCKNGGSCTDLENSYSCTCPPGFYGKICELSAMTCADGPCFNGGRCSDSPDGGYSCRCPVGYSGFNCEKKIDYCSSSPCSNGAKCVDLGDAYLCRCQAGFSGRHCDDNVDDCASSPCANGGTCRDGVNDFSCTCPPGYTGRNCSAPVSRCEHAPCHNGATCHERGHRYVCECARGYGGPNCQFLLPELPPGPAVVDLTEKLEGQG
Method: (§1) To investigate the binding of anti-DLL3 antibodies to human DLL3, wells of high binding flat-bottom plates were coated with recombinant human DLL3 diluted to 0.5 μg/ml. To assess cross-reactivity of the antibodies to DLL1/DLL4, which are closely related family members to DLL3, plates were coated with recombinant human DLL1 diluted to 1 μg/ml, or human DLL4 diluted to 0.5 μg/ml. […] Binding was detected using anti-mouse IgG-HRP and 3,3′,5,5′-Tetramethylbenzidine (TMB) substrate. Signals were normalized to the corresponding positive control antibody.

[1] = target: T2, extracellular domain (ECD) of human DLL3 (AdipoGen Life Sciences) (human, UniProt Q9NYJ7 27-492); test: SPR (Biacore 8K), 37 C, antibody captured on anti-mouse Fc, DLL3 ECD injected, 1:1 fit
T2 construct: Bought and further purified by size exclusion chromatography; also called hDLL3 ECD; DLL3 ECD
T2 sequence: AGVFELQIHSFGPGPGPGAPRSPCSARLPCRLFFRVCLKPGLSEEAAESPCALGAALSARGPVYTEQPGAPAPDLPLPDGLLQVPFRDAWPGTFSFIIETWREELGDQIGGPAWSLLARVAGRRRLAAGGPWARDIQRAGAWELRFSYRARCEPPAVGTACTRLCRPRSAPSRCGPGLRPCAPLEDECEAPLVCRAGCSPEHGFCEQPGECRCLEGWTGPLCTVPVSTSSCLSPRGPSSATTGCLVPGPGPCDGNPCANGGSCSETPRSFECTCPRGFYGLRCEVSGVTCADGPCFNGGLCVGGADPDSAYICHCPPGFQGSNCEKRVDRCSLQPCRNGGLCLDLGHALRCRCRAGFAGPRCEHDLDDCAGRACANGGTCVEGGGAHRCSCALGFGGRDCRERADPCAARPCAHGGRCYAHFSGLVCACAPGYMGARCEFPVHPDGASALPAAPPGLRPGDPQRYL
Text: (§2) The binding kinetics of different anti-DLL3 antibodies to recombinant proteins of different domains of human DLL3 were studied by surface plasmon resonance (SPR) using a Biacore™ 8K instrument. These anti-DLL3 antibodies were produced from mouse hybridomas, and each included a heavy chain variable region and light chain variable region described herein. Briefly, antibodies recognizing human IgG Fc and antibodies recognizing mouse IgG Fc were immobilized on different channels of a Biacore™ 8K chip to allow simultaneous analysis of human and murine anti-DLL3 antibodies. Murine anti-DLL3 antibodies were captured on the anti-mouse Fc channel of the Biacore chip. The human anti-DLL3 antibody from Stemcentrx (San Francisco, Calif.) was used as a control and was captured onto anti-human Fc channel of the Biacore™ chip. Different concentrations of DLL3 ECD, DLL3 N-terminal domain, EGF2-6, EGF3-6, EGF4-6, or EGF5-6 domains of DLL3 were injected. Experiments were performed at 37° C. Biacore™ 8K evaluation software was used for all data analysis. To obtain kinetic rate constants double-referenced data were fit to a 1:1 interaction model using Biacore™ 8K Evaluation software (GE Healthcare, Marlborough, Mass.). The equilibrium binding constant KD was determined by the ratio of binding rate constants kd/kₐ.
Table 36 lists the calculated binding kinetics (KD). […] Stemcentrx anti-DLL3 antibody was used as a control.

[2] = target: T2, extracellular domain (ECD) of human …; test: SPR (Biacore 8K), 37 C, antibody captured on anti-mouse Fc, DLL3 ECD injected, 1:1 fit; off rate beyond instrument sensitivity
Text: as §2
(§3) Table 36 lists the calculated binding kinetics (KD). […]

[3] = target: T2, extracellular domain (ECD) of human …; test: SPR (Biacore 8K), 37 C, antibody captured on anti-mouse Fc, DLL3 ECD injected, 1:1 fit; approximate
Text: as §2, §3

recombinant human DLL4 = recombinant human DLL4 (human, UniProt Q9NR61 27-524, limits assumed); test: ELISA, plate-bound recombinant human DLL4 (0.5 µg/mL), anti-mouse IgG-HRP/TMB, % of positive control max
Method: as §1

[4] = target: T3, recombinant human DLL3 (ELISA coat) (human, UniProt Q9NYJ7 27-492); test: ELISA, plate coated with recombinant human DLL3 0.5 µg/ml, anti-mouse IgG-HRP
T3 sequence: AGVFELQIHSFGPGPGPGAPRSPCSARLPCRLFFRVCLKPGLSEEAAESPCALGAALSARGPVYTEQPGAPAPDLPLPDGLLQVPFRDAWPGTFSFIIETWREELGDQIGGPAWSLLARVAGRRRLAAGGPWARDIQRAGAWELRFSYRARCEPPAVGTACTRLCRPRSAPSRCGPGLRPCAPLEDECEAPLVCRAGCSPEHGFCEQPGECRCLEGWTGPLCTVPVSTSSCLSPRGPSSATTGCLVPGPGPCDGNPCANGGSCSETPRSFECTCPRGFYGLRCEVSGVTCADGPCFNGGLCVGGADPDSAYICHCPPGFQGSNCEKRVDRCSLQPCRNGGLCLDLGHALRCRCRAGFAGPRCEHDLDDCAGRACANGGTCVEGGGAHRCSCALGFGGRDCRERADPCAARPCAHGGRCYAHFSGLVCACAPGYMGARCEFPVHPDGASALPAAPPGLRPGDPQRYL
Method: as §1
Table 38 lists the calculated EC₅₀ based on the binding data from FIG. 24.

Sequence of recombinant human DLL4 (Q9NR61 27-524 limits assumed): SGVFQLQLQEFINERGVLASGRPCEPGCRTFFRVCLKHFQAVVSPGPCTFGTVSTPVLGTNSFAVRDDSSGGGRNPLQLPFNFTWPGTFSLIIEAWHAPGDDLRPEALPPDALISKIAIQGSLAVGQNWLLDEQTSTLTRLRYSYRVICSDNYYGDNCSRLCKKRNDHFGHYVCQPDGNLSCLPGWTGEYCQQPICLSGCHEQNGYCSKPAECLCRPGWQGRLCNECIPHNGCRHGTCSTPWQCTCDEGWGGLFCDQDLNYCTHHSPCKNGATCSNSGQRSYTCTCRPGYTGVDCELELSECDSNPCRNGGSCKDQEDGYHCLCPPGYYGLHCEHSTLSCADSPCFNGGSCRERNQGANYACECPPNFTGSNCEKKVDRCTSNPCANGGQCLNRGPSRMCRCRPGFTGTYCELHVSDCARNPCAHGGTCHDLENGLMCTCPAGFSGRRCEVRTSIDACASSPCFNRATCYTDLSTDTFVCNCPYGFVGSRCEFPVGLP

binding result (recombinant human DLL1): no binding
kon [1]: 72100 M⁻¹ s⁻¹
koff [2]: ~1.15e-06 s⁻¹
Kd [3]: < 0.011 nM
binding result (recombinant human DLL4): no binding
EC50 [4]: 0.3 nM
B1: anti-DLL3 antibody clone 2F7 (antibody, V domains shown)
VH: QVQLQQSGAELMKPGASVKLSCKATGYTFTGYWIDWIKQRPGHGLEWVGEILPGSDNINYNEKFRGKATFTADTSSNTAYIQLSSLTTEDSAIYFCARCGTGPWFTYWGQGTLVTVSA
VL: NIMMTQSPSSLAVSAGEKVTMSCKSSQSVLYSSNQKNYLAWYQQKPGQSPRLLIYWASTRASGVPDRFTGSGSGTDFTLTITNIQPEDLAVYYCHQFLSSTWTFGGGTKLEIK
notes: Murine antibody produced from a mouse hybridoma
